According to the supplement of paper PMC9112550, “Optimization of the antimicrobial peptide Bac7 by deep mutational scanning” (BMC Biology, 2022):

System: Escherichia coli TOP10
Assay: shrunken log2 fold change of peptide-encoding DNA abundance (4.5 h post-induction vs induction); higher = less antimicrobial activity (less host growth inhibition)
Details: time post-induction: 4.5 h; library: site-saturation at positions 5, 18, 19, 20
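Also: peptides expressed intracellularly from a pBAD plasmid library in pooled LB shake-flask culture, induced with 0.3% L-arabinose, DNA abundance read by NGS, three biological replicates, DESeq2 with apeglm shrinkage.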

| Sequence | shrunken log2 fold change |
| --- | --- |
| RRIRIRPPRLPRPRPRPGCLPRP | 1.56 |
| RRIRIRPPRLPRPRPRPGDAPRP | 0.0793 |
| RRIRIRPPRLPRPRPRPGDHPRP | 0.14 |
| RRIRIRPPRLPRPRPRPGDMPRP | -0.763 |
| RRIRIRPPRLPRPRPRPGDSPRP | 0.0577 |
| RRIRIRPPRLPRPRPRPGFKPRP | -0.219 |
| RRIRIRPPRLPRPRPRPGFQPRP | -0.106 |
| RRIRIRPPRLPRPRPRPGGLPRP | -0.16 |
| RRIRIRPPRLPRPRPRPGHFPRP | -0.0592 |
| RRIRIRPPRLPRPRPRPGHPPRP | -0.212 |
| RRIRIRPPRLPRPRPRPGHTPRP | -0.165 |
| RRIRIRPPRLPRPRPRPGIPPRP | -0.225 |
| RRIRIRPPRLPRPRPRPGIYPRP | -0.585 |
| RRIRIRPPRLPRPRPRPGKDPRP | 0.00215 |
| RRIRIRPPRLPRPRPRPGKIPRP | -0.0443 |
| RRIRIRPPRLPRPRPRPGKYPRP | -0.394 |
| RRIRIRPPRLPRPRPRPGLGPRP | 0.217 |
| RRIRIRPPRLPRPRPRPGNFPRP | -0.064 |
| RRIRIRPPRLPRPRPRPGNMPRP | -0.105 |
| RRIRIRPPRLPRPRPRPGNSPRP | -1.05 |
| RRIRIRPPRLPRPRPRPGPVPRP | -0.0724 |
| RRIRIRPPRLPRPRPRPGQTPRP | 0.0693 |
| RRIRIRPPRLPRPRPRPGRFPRP | 0.138 |
| RRIRIRPPRLPRPRPRPGRMPRP | 0.198 |
| RRIRIRPPRLPRPRPRPGSGPRP | 0.166 |

| Sequence | shrunken log2 fold change |
| --- | --- |
| RRIRIRPPRLPRPRPRPGTHPRP | -0.431 |
| RRIRIRPPRLPRPRPRPGVKPRP | -0.279 |
| RRIRIRPPRLPRPRPRPGVRPRP | 0.135 |
| RRIRIRPPRLPRPRPRPGVWPRP | 0.191 |
| RRIRIRPPRLPRPRPRPGYQPRP | -0.0481 |
| RRIRIRPPRLPRPRPRPHAQPRP | 0.142 |
| RRIRIRPPRLPRPRPRPHASPRP | -0.012 |
| RRIRIRPPRLPRPRPRPHFFPRP | -0.237 |
| RRIRIRPPRLPRPRPRPHFHPRP | -0.424 |
| RRIRIRPPRLPRPRPRPHFIPRP | -0.564 |
| RRIRIRPPRLPRPRPRPHFLPRP | -1.42 |
| RRIRIRPPRLPRPRPRPHKDPRP | -0.447 |
| RRIRIRPPRLPRPRPRPHKNPRP | -0.528 |
| RRIRIRPPRLPRPRPRPHKVPRP | -0.0742 |
| RRIRIRPPRLPRPRPRPHMTPRP | -0.64 |
| RRIRIRPPRLPRPRPRPHNCPRP | -0.0359 |
| RRIRIRPPRLPRPRPRPHNIPRP | -0.424 |
| RRIRIRPPRLPRPRPRPHNVPRP | -0.414 |
| RRIRIRPPRLPRPRPRPHNWPRP | -0.239 |
| RRIRIRPPRLPRPRPRPHQGPRP | -0.117 |
| RRIRIRPPRLPRPRPRPHQMPRP | 0.0234 |
| RRIRIRPPRLPRPRPRPHQWPRP | -0.246 |
| RRIRIRPPRLPRPRPRPHRKPRP | -0.551 |
| RRIRIRPPRLPRPRPRPHSVPRP | -0.0376 |
| RRIRIRPPRLPRPRPRPHTRPRP | -0.35 |

| Sequence | shrunken log2 fold change |
| --- | --- |
| RRIRIRPPRLPRPRPRPHTSPRP | -1.18 |
| RRIRIRPPRLPRPRPRPHWRPRP | -0.101 |
| RRIRIRPPRLPRPRPRPHWTPRP | 0.0591 |
| RRIRIRPPRLPRPRPRPHYCPRP | -0.0772 |
| RRIRIRPPRLPRPRPRPHYFPRP | -0.173 |
| RRIRIRPPRLPRPRPRPIAKPRP | -0.0645 |
| RRIRIRPPRLPRPRPRPIAPPRP | -0.0686 |
| RRIRIRPPRLPRPRPRPIERPRP | -0.0785 |
| RRIRIRPPRLPRPRPRPIGVPRP | -0.0176 |
| RRIRIRPPRLPRPRPRPIHIPRP | -0.149 |
| RRIRIRPPRLPRPRPRPIIKPRP | -0.666 |
| RRIRIRPPRLPRPRPRPIKCPRP | -0.446 |
| RRIRIRPPRLPRPRPRPIKKPRP | -0.0505 |
| RRIRIRPPRLPRPRPRPIKPPRP | -0.254 |
| RRIRIRPPRLPRPRPRPIMCPRP | -0.0373 |
| RRIRIRPPRLPRPRPRPINEPRP | -0.516 |
| RRIRIRPPRLPRPRPRPINSPRP | -0.619 |
| RRIRIRPPRLPRPRPRPIQRPRP | -0.265 |
| RRIRIRPPRLPRPRPRPIRGPRP | -0.0199 |
| RRIRIRPPRLPRPRPRPIRQPRP | 0.143 |
| RRIRIRPPRLPRPRPRPIRYPRP | -0.125 |
| RRIRIRPPRLPRPRPRPISCPRP | -0.0154 |
| RRIRIRPPRLPRPRPRPISEPRP | -0.492 |
| RRIRIRPPRLPRPRPRPITWPRP | -0.551 |
| RRIRIRPPRLPRPRPRPKAEPRP | 0.124 |
